Reference: PMC10567725, “Structure of full-length cobalamin-dependent methionine synthase and cofactor loading captured in crystallo” (Nature Communications, 2023)

Tests used:
Experiment in all cases: purified protein
purified protein [1] = substrate: NC(CCS)C(=O)O; format: biochemical, Thermus thermophilus; conditions: 250 µM CH3-H4folate, SAM, aquacobalamin, DTT, pH 7.2, 50 °C, holo-tMS, DL-homocysteine varied
purified protein [2] = substrate: C[S+](CC[C@H](N)C(=O)O)C[C@H]1O[C@@H](n2cnc3c(N)ncnc32)[C@H](O)[C@@H]1O; conditions: 1.25 mM DL-homocysteine, 104 µM (6S)-methyltetrahydrofolate, 50 °C, holo-tMS, reactivation (reductive methylation of cob(II)alamin)
purified protein [3] = substrate: CN1c2c(nc(N)[nH]c2=O)NC[C@@H]1CNc1ccc(C(=O)N[C@@H](CCC(=O)O)C(=O)O)cc1; conditions: 100 µM homocysteine, SAM, aquacobalamin, DTT, pH 7.2, 50 °C, holo-tMS (MeCbl), pH 7.2

B1: tMS (full-length cobalamin-dependent methionine synthase) (Thermus thermophilus HB8) (protein)
chain: MVEVHACSPGCRHHLGGAGWGDAPLVRLGYNKEARAKKFPYLKALLERPLVFDGAMGTELQKRDLTPEDYGGEAYFGCPEVLNRTRPEVVREIHLAYLEAGAEVIETNTFGALRHVLAEYGLEEAAEELAFLGARIAREAADPHGAFVAGALGPGTKLVSLGQISWDALYRAYKEAARGLLKGGVDLILLETAQDILQVRCAVLAVREAMAEVGREVPLQVQVTFEATGTMLVGTDEQAALAALESLPVDVVGMNCATGPDLMDSKVRYFAEHSTRFVSCLPNAGLPRNEGGRVVYDLTPEELAKWHLKFVAEYGVNAVGGCCGTGPEHIRKVAEAVKGLAPKPRPESFPPQVASLYQAVSLKQEASLFLVGERLNATGSKRFREMLFARDLEGILALAREQVEEGAHALDLSVAWTGRDELEDLRWLLPHLATALTVPVMVDSTSPEAMELALKYLPGRVLLNSANLEDGLERFDRVASLAKAHGAALVVLAIDEKGMAKTREEKVRVALRMYERLTEHHGLRPEDLLFDLLTFPITQGDEESRPLAKETLLAMEELRERLPGVGFVLGVSNVSFGLKPRARRVLNSVFLDEARKRGLTAAIVDAGKILPISQIPEEAYALALDLIYDRRKEGFDPLLAFMAYFEAHKEDPGKREDAFLALPLLERLKRRVVEGRKQGLEADLEEALKAGHKPLDLINGPLLAGMKEVGDLFGAGKMQLPFVLQAAEVMKRAVAYLEPHMEKKGEGKGTLVLATVKGDVHDIGKNLVDIILSNNGYRVVNLGIKVPIEEILKAVEAHKPHAVGMSGLLVKSTLVMKENLEYMRDRGYTLPVILGGAALTRSYVEELRAIYPNVYYAEDAFEGLRLMEELTGHAPPELTRKAPARPKREAPKVAPRARPVGEAPAVPRPPFFGVRVEEGLDLATIAHYVNKLALYRGQWGYSRKGLSREAWQALVEREAEPVFQRLLKEAMAEGWLEPKVLYGFFPVAREGEELLVFSPETGEVLERFRFPRQKGGGLSLVDYFRPRFAAPLGDEADWMPKEAFRAGARDVLGVQLVTMGEAPSRKAQALFASGAYQDYLFVHGFSVEMTEALAEYWHKRMRQMWGIAHQDATEIQKLFQQGYQGARYSFGYPACPDLADQAKLDRLMGFHRVGVRLTENFQLEPEHATSALVVHHPEARYFSVD
notes: full-length wild type, five modules Hcy:Fol:Cap:Cob:Act, N-terminal His tag with TEV site (cut), E. coli BL21star(DE3); holoenzyme reconstituted with MeCbl; 132 kDa
In the case of B1, the Km (purified protein [1]) is reported as 9.3 ± 3.1 µM, the Km (purified protein [2]) is reported as 1.0 ± 0.1 µM and the Km (purified protein [3]) is reported as 18 ± 4.1 µM.
